# Measurements taken from article PMC12458545, “Repurposing a Detrimental Antibody Epitope as Targeted Therapeutics for Sepsis and Rheumatoid Arthritis” (Research Square, 2025).
# “Also recorded” adds a separate entry of the source.
# T1: P5 peptide of tetranectin (Homo sapiens, UniProt P05452)
# T1 construct: synthetic peptide from the C-terminal portion (CRD) of human tetranectin; S1A, S1B; source: synthetic peptide
# T1 chain: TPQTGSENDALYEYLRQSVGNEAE
# B1: anti-tetranectin monoclonal antibody mAb8 (antibody, V domains shown)
# VH: DVNLVESGGGLVKLGGSLKLSCADSGFTFSSYYMSWVRQTPEKRLELVAAINSNGGRTYYPDTVKGRFTISRDNAKNTLYLQMSSLKSEDTALYYCARQGKNGLDYWGQGTSVTVSS
# VL: DIQMTQTTSSLSASLGDRVTISCRASQDISNHLNWYQQKPDGTIKLLIYYTSRLHSGVPSRFSGSGSGTDFSLSISNLEQEDIATYFCQQGKTLPPTFGGGTKLEIK
# notes: mouse monoclonal antibody; also called protective anti-TN mAb; source: generated in Balb/C and C57BL/6 mice as previously described [6,30]; hybridoma
# B2: HMGB1: recombinant human HMGB1 expressed in E. coli; PBMC stimulus and SPR target (protein)
# chain: MGKGDPKKPRGKMSSYAFFVQTCREEHKKKHPDASVNFSEFSKKCSERWKTMSAKEKGKFEDMAKADKARYEREMKTYIPPKGETKKKFKDPNAPKRPPSAFFLFCSEYRPKIKGEHPGLSIGDVAKKLGEMWNNTAADDKQPYEKKAAKLKEKYEKDIAAYRAKGKPDAAKKGVVKAEKSKKKKEEEEDEEDEEDEEEEEDEEDEDEEEDDDDE
# B3: TN: full-length human tetranectin (residues 1-181) (protein, UniProt P05452 22-202, looked up)
# Tetranectin: EPPTQKPKKIVNAKKDVVNTKMFEELKSRLDTLAQEVALLKEQQALQTVCLKGTKVHMKCFLAFTQTKTFHEASEDCISRGGTLGTPQTGSENDALYEYLRQSVGNEAEIWLGLNDMAAEGTWVDMTGARIAYKNWETEITAQPDGGKTENCAVLSGAANGKWFDKRCRDQLPYICQFGIV
# Experiments:
# CLP-induced sepsis [1] = test: CLP sepsis survival; assay type: in vivo, Balb/C mice
# Description: Experimental sepsis was induced in Balb/C mice via cecal ligation and puncture (CLP) as previously described,[30],[37]. […] Briefly, mice were anesthetized intramuscularly with ketamine (75 mg/kg, Henry Schein Animal Health, Dublin, Ohio) and xylazine (10 mg/kg, Sigma-Aldrich) before a midline abdominal incision was made in the lower left abdomen. The cecum was ligated with a 4–0 silk suture at 50% of its length from the distal end, and punctured twice with a 21-gauge needle to induce moderate to severe sepsis. The cecum was returned to the abdominal cavity, and the incision was closed in layers. Approximately 30 min post-CLP, animals received imipenem/cilastatin (0.5 mg/mouse, Primaxin, Merck & Co., Inc.) and 1.0 mL of sterile saline for fluid resuscitation. Animals were randomized to control vehicle and experimental groups, administered P2 or P2–1 intraperitoneally at indicated doses and time points, and monitored for survival rates. To elucidate P2–1’s protective mechanisms, a separate group of Balb/C mice underwent CLP and received P2–1 (1.0 mg/kg) at 2 h and 20 h post-CLP. At 24 h post-CLP, animals were euthanized to collect blood and measure serum cytokines and chemokines using murine Cytokine Antibody Arrays.
# All data were first assessed for normality using the Shapiro-Wilk test before applying the appropriate statistical analyses. All data are presented as mean ± standard error of the mean (SEM) unless otherwise specified. For comparison among multiple groups with non-normal (skewed) distribution, the Kruskal-Wallis ANOVA test followed by Dunn’s post-hoc test was used to evaluate statistical differences. Survival curves were analyzed using Kaplan-Meier method and compared using the nonparametric log-rank (Mantel-Cox) test. Statistical significance was defined as a P value less than 0.05.
# water solubility = assay type: physicochemical
# TN peptides (P1-P10) = test: dot blot epitope mapping of anti-TN mAbs with TN peptides P1-P10; assay type: binding, human; details: peptides 0.1 μg in 2.5 μl on nitrocellulose; mAb 1.0 μg/mL; chemiluminescence
# Description: A library of ten synthetic peptides (P1-P10, fig. S1B) corresponding to C-terminus portion of TN protein (fig. S1A) were spotted (0.1 μg in 2.5 μl) onto nitrocellulose membranes (Thermo Scientific, Cat No. 88013). Membranes were blocked with 5% milk in PBS-T (PBS with 0.1% Tween-20) and then incubated with anti-TN monoclonal antibodies (mAb8 or mAb9, 1.0 μg/mL). After washing, membranes were incubated with HRP-conjugated goat anti-mouse IgG (Jackson ImmunoResearch), and signals were detected using chemiluminescence as described,[30].
# [2] = molecular target: T1, P5 peptide of tetranectin; test: far-Western, overlay or dot blot; synthetic TN peptides P1-P10 spotted (0.1 μg in 2.5 μl) on nitrocellulose, blocked with 5% milk in PBS-T; mAb8 or mAb9 at 1.0 μg/mL; HRP goat anti-mouse IgG, chemiluminescence; details: both partners purified
# CLP-induced sepsis [3] = details: anti-TN mAbs; mice; cited from earlier work
# human PBMCs [4] = test: HMGB1-induced pCTS-L secretion, Western blot; assay type: cell-based; details: HMGB1 alone
# Description: (§1) Human blood was purchased from the New York Blood Center (Long Island City, NY, USA), and PBMCs were isolated by density gradient centrifugation through Ficoll (Ficoll-Paque PLUS) as previously described,[30]. PBMCs were cultured in RPMI-1640 supplemented with 10% human serum, 2 mM L-glutamine, 100 U/mL penicillin, and 100 μg/mL streptomycin (all from Invitrogen). For experiments, PBMCs were stimulated with recombinant human HMGB1 (0.5 or 2.0 μg/ml) for 16 hours, either alone or in combination with P2–1 at 5.0 or 10.0 μg/ml. Cell-free supernatants were collected for analysis of cytokines/chemokines levels by Cytokine Antibody Arrays, or pCTS-L levels by Western blotting analysis as described.
# Cell-conditioned medium from human PBMC cultures was collected, and concentrated using Amicon Ultra Centrifugal Filters. Equal volumes of conditioned medium, representing equivalent numbers of cells, were resolved on sodium dodecyl sulfate (SDS)-polyacrylamide gels and transferred to polyvinylidene difluoride (PVDF) membranes. After blocking with 5% nonfat milk in Tris-buffered saline with 0.1% Tween 20 (TBST), membranes were probed with a home-made primary monoclonal antibody against pCTS-L (e.g., mAb2, 1:1000) overnight as previously described. After washing, membranes were incubated with a horseradish peroxidase-conjugated secondary antibody. Protein bands were visualized using enhanced chemiluminescence (ECL) substrate (Pierce) and detected with a chemiluminescence imaging system (e.g., Bio-Rad ChemiDoc MP). The relative levels of specific proteins were determined using the UN-SCAN-IT Gel Analysis Software Version 7.1 (Silk Scientific Inc., Orem, UT, USA) and expressed in arbitrary units (AU).
# human PBMCs [5] = test: RNA-seq of HMGB1-stimulated PBMCs; assay type: cell-based; details: HMGB1 stimulation alone
# Description: as §1
# Total RNA was isolated from human PBMCs stimulated with HMGB1 in the absence or presence of P2–1 (5.0 or 10.0 μg/ml) using the RNeasy Mini Kit (Qiagen) according to the manufacturer’s instructions. RNA quantity and quality were assessed using a NanoDrop spectrophotometer and an Agilent Bioanalyzer. cDNA libraries were prepared using the TruSeq RNA Library Prep Kit v2 (Illumina) and sequenced on an Illumina NovaSeq 6000 platform to generate 100 bp paired-end reads. Raw sequencing reads were quality-checked using FastQC, trimmed with Trimmomatic, and aligned to the human reference genome (GRCh38) using HISAT2. Gene counts were quantified using StringTie and DESeq2 was used for differential gene expression analysis. Volcano plots and heatmaps were generated using ggplot2 and pheatmap packages in R, respectively. Genes with an adjusted P-value < 0.05 and a |log2-fold change| > 1 were considered differentially expressed.
# human PBMCs [6] = test: HMGB1-induced cytokine/chemokine secretion, Cytokine Antibody Arrays; assay type: cell-based; details: HMGB1 0.5 or 2.0 μg/ml alone, 16 h
# Description: as §1
# Levels of cytokines and chemokines in mouse serum and joint tissue lysates, or human PBMC culture supernatants were determined using murine or human Cytokine Antibody Arrays (e.g., Cat. No. M0308003 or Cat. No. AAH-CYT-3–4, RayBiotech Inc., Norcross, GA, USA) as previously described,[30],[86],[87]. Serum samples were collected from mice at 24 h post-CLP. The soft tissue of the hindpaw and ankle joints was carefully collected using a previously described protocol. Briefly, 0.5 g of fresh soft tissue was cut into 3 mm pieces, and mixed with 400 μL of a hypertonic solution (500 mL PBS with 4.5 g NaCl and 2× protease inhibitor cocktail) in a 10 mL syringe. Mechanical extrusion, involving 30 rapid back-and-forth movements of the plunger, was then performed. The expelled extracellular fluid was collected, immediately aliquoted, and stored at −20°C until analysis. Cell-conditioned medium was collected from PBMC cultures after 16 h of stimulation. Arrays were performed according to the manufacturer’s protocol, followed by chemiluminescent detection and densitometric quantification as previously described,[30].
# human PBMCs [7] = details: TN; cited from earlier work
# Description: To validate these RNA-seq findings, we quantified HMGB1-induced cytokine/chemokine protein levels using Cytokine Antibody Arrays.
molecule,measurement,setting,value
55-KVHMKCFLAFTQTKTF-70 [P2],survival,"CLP-induced sepsis [1]; P2 5.0 mg/kg at 2 h and 24 h post-CLP, 5 mg/kg",significantly increased survival rates in both male and female mice; also recorded: significantly increased animal survival
same,animal survival (# of Survivors),"CLP-induced sepsis [1]; P2 5.0 mg/kg i.p. at 2 h and 24 h post-CLP, male and female mice, P < 0.05 vs. vehicle",60%
same,water solubility,water solubility,poor water solubility
B1,TN peptide bound in dot blot,TN peptides (P1-P10),targeted P5; also recorded: binds P5
same,binding result,[2],binds
same,effect on septic survival/lethality,CLP-induced sepsis [3],protected mice against sepsis
B2,pCTS-L expression and secretion,human PBMCs [4],induced pCTS-L expression and secretion in human immune cells
same,gene expression of inflammatory cytokines and chemokines,human PBMCs [5],profoundly upregulated many inflammatory cytokines
same,"cytokine and chemokine protein levels (e.g., TNF, IL-6, IL-10, CXCL5, CXCL1, CXCL8, CCL2, CCL7)",human PBMCs [6],significantly increased protein levels of various cytokines
B3,"HMGB1-induced cytokines (e.g., IL-6) and chemokines (e.g., MCP-1)",human PBMCs [7],"did not affect HMGB1-induced cytokines (e.g., IL-6) and chemokines (e.g., MCP-1)"
